For the assay, the target named is MK-3475-596 (MK-3475 derivatized with fluorescent dye Dylight-596) (Dylight-596 amine-reactive dye, reacts preferentially with the primary amine of lysine residues (sites not given)). Description: FRET between Dylight-488 labelled Ab6 and Dylight-596 labelled MK-3475, recorded for 72 hours (ex 488 nm, em 620 nm). How it is done:
Dylight-488® or Dylight-596® are amine-reactive dyes, which react preferentially with the primary amine of lysine residues. […] Due to the sensitivity of the assay, the molar concentration of the fluorogenic tagged proteins is either 3.2 uM or 800 nM depending on the protein ratio. FRET fluorescence signals are recorded for 72 hours at λₑₘ=620 nm (λₑₓ=488 nm) (FIG. 49).
If protein interaction occurs, we expect to see a growth of the fluorescence signal as a function of time (FIG. 49). The interaction is evaluated by the rate of growth of the fluorescence and the maximum of the fluorescence signal. The absence of interaction (or a reduced interaction) is characterized by i) a low rate of the growth of the fluorescence signal, and ii) a low plateau maximal. […] The fluorescence baseline is measured in the absence of labeled protein.

Chain of MK-3475-596 (MK-3475 derivatized with fluorescent dye Dylight-596) (Dylight-596 amine-reactive dye, reacts preferentially with the primary amine of lysine residues (sites not given)) (VH, as listed by the source, chain 1 of 2): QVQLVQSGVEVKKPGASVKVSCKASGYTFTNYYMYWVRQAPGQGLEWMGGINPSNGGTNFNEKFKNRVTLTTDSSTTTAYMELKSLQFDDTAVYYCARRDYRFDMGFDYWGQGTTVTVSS
Chain of MK-3475-596 (MK-3475 derivatized with fluorescent dye Dylight-596) (Dylight-596 amine-reactive dye, reacts preferentially with the primary amine of lysine residues (sites not given)) (VL, as listed by the source, chain 2 of 2): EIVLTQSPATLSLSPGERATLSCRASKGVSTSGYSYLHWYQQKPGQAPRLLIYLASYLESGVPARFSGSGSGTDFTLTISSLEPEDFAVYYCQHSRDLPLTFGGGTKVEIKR

B1: Ab6-488 (Ab6 derivatized with fluorescent dye Dylight-488) (antibody, human IgG4 S228P, kappa, V domains shown)
VH: QMQLVQSGPEVKKPGTSVKVSCKASGYTFTDYNVDWVRQARGQRLEWIGDINPNDGGTIYAQKFQERVTITVDKSTSTAYMELSSLRSEDTAVYYCARNYRWFGAMDHWGQGTTVTVSS
VL: DIVMTQTPLSLSVTPGQPASISCKASQSLDYEGDSDMNWYLQKPGQPPQLLIYGASNLESGVPDRFSGSGSGTDFTLKISRVEAEDVGVYYCQQSTEDPRTFGGGTKVEIKR
modifications: Dylight-488 amine-reactive dye, reacts preferentially with the primary amine of lysine residues (sites not given)
As to B1, the binding result was “no binding”.

The values are drawn from patent US20220002410A1 (Merck Sharp & Dohme, published 2022).
